Columns and labels:
Assay in all cases: cell-based or functional assay
[1] = biological target: HIV-1 Env of pseudovirus 211-9 (clade CRF02_AG) (HIV-1)
[2] = biological target: HIV-1 Env of pseudovirus C3347.c11 (clade CRF01_AE) (HIV-1)
[3] = biological target: HIV-1 Env of pseudovirus BJOX009000.02.4 (clade CRF01_AE) (HIV-1)
[4] = biological target: HIV-1 Env of pseudovirus T251-18 (clade CRF02_AG) (HIV-1)
[5] = biological target: HIV-1 Env of pseudovirus BJOX015000.11.5 (clade CRF01_AE (T/F)) (HIV-1)
[6] = biological target: HIV-1 Env of pseudovirus HIV-001428-2.42 (clade C) (HIV-1)
[7] = biological target: HIV-1 Env of pseudovirus 1056_10_TA11_1826 (clade B (T/F)) (HIV-1)
[8] = biological target: HIV-1 Env of pseudovirus 6244_13_B5_4576 (clade B (T/F)) (HIV-1)
[9] = biological target: HIV-1 Env of pseudovirus 249M B10 (clade C (T/F)) (HIV-1)
[10] = biological target: HIV-1 Env of pseudovirus CNE53 (clade BC) (HIV-1)
[11] = biological target: HIV-1 Env of pseudovirus Ce703010054_2A2 (clade C (T/F)) (HIV-1)
[12] = biological target: HIV-1 Env of pseudovirus HIV-0013095-2.11 (clade C) (HIV-1)
[13] = biological target: HIV-1 Env of pseudovirus ZM135M.PL10a (clade C) (HIV-1)
[14] = biological target: HIV-1 Env of pseudovirus Ce0682_E4 (clade C (T/F)) (HIV-1)
[15] = biological target: HIV-1 Env of pseudovirus PVO.4 (clade B) (HIV-1)
[16] = biological target: HIV-1 Env of pseudovirus Du156.12 (clade C) (HIV-1)
[17] = biological target: HIV-1 Env of pseudovirus QH0692.42 (clade B) (HIV-1)
[18] = biological target: HIV-1 Env of pseudovirus CAAN5342.A2 (clade B) (HIV-1)
[19] = biological target: HIV-1 Env of pseudovirus Q461.e2 (clade A) (HIV-1)
[20] = biological target: HIV-1 Env of pseudovirus AC10.0.29 (clade B) (HIV-1)

PG16 (antibody)
IC50, titer in TZM.bl cells [1]: 0.029 µg/mL
IC80, titer in TZM.bl cells [1]: 0.144 µg/mL
IC50, titer in TZM.bl cells [2]: 0.008 µg/mL
IC80, titer in TZM.bl cells [2]: 0.045 µg/mL
IC50, titer in TZM.bl cells [3]: 1.19 µg/mL
IC80, titer in TZM.bl cells [3]: 22.1 µg/mL
IC50, titer in TZM.bl cells [4]: 1.72 µg/mL
IC80, titer in TZM.bl cells [4]: 44.7 µg/mL
IC50, titer in TZM.bl cells [5]: 3.13 µg/mL
IC80, titer in TZM.bl cells [5]: > 50 µg/mL

10E8 (antibody)
IC50, titer in TZM.bl cells [1]: 1.09 µg/mL
IC80, titer in TZM.bl cells [1]: 6.51 µg/mL
IC50, titer in TZM.bl cells [2]: 0.016 µg/mL
IC80, titer in TZM.bl cells [2]: 0.167 µg/mL
IC50, titer in TZM.bl cells [3]: 1.57 µg/mL
IC80, titer in TZM.bl cells [3]: 9.95 µg/mL
IC50, titer in TZM.bl cells [4]: 2.36 µg/mL
IC80, titer in TZM.bl cells [4]: > 10 µg/mL
IC50, titer in TZM.bl cells [5]: 0.051 µg/mL
IC80, titer in TZM.bl cells [5]: 1.91 µg/mL

N49P11 (antibody)
IC50 [6]: 0.221 µg/mL
IC80 [6]: 1.64 µg/mL
MPI [6]: 100
IC50 [7]: 4.77 µg/mL
IC80 [7]: 14.2 µg/mL
MPI [7]: 100
IC50 [8]: 1.12 µg/mL
IC80 [8]: 5.45 µg/mL
MPI [8]: 100
IC50 [9]: 3.54 µg/mL
IC80 [9]: 12.9 µg/mL
MPI [9]: 100
IC50 [10]: 0.43 µg/mL
IC80 [10]: 2.88 µg/mL
MPI [10]: 100
IC50 [11]: 1.42 µg/mL
IC80 [11]: 7.51 µg/mL
MPI [11]: 100
IC50 [12]: 5.85 µg/mL
IC80 [12]: 17.8 µg/mL
MPI [12]: 100
IC50 [13]: 3.97 µg/mL
IC80 [13]: 16.6 µg/mL
MPI [13]: 100
IC50 [14]: 0.091 µg/mL
IC80 [14]: 0.387 µg/mL
MPI [14]: 100
IC50 [15]: 0.248 µg/mL
IC80 [15]: 1.17 µg/mL
MPI [15]: 100
IC50 [16]: 2.4 µg/mL
IC80 [16]: 12 µg/mL
MPI [16]: 100
IC50 [17]: 0.55 µg/mL
IC80 [17]: 2.65 µg/mL
MPI [17]: 100
IC50 [18]: 9.03 µg/mL
IC80 [18]: 20.8 µg/mL
MPI [18]: 100
IC50 [19]: 0.363 µg/mL
IC80 [19]: 2.15 µg/mL
MPI [19]: 100
IC50 [20]: 5.52 µg/mL
IC80 [20]: 20 µg/mL
MPI [20]: 100

10-1074 (antibody)
IC50, titer in TZM.bl cells [1]: 0.112 µg/mL
IC80, titer in TZM.bl cells [1]: 0.425 µg/mL
IC50, titer in TZM.bl cells [2]: > 50 µg/mL
IC80, titer in TZM.bl cells [2]: > 50 µg/mL
IC50, titer in TZM.bl cells [3]: > 50 µg/mL
IC80, titer in TZM.bl cells [3]: > 50 µg/mL
IC50, titer in TZM.bl cells [4]: 1.08 µg/mL
IC80, titer in TZM.bl cells [4]: 7.39 µg/mL
IC50, titer in TZM.bl cells [5]: > 50 µg/mL
IC80, titer in TZM.bl cells [5]: > 50 µg/mL

PG9 (antibody)
IC50, titer in TZM.bl cells [1]: 0.049 µg/mL
IC80, titer in TZM.bl cells [1]: 0.243 µg/mL
IC50, titer in TZM.bl cells [2]: 0.032 µg/mL
IC80, titer in TZM.bl cells [2]: 0.113 µg/mL
IC50, titer in TZM.bl cells [3]: 1.73 µg/mL
IC80, titer in TZM.bl cells [3]: 8.21 µg/mL
IC50, titer in TZM.bl cells [4]: > 50 µg/mL
IC80, titer in TZM.bl cells [4]: > 50 µg/mL
IC50, titer in TZM.bl cells [5]: 0.322 µg/mL
IC80, titer in TZM.bl cells [5]: 1.49 µg/mL
